Columns and labels:
[1] = tested on: Caki-1 kidney carcinoma xenograft; assay: Subcutaneous tumor xenograft model; format: in vivo, mouse
Description: Six xenograft models, SK-OV-3, OV-CAR-8, BxPC-3, OV-CAR-5, Caki-1 and NCI-H460 (A to F, respectively) were used to examine the effects of 1B3 on xenograft tumors in athymic nude mice. Mice with established tumors (˜250-300 mm^3) were randomly grouped and treated with 1B3, normal human IgG, or saline by intraperitoneal injection twice weekly (except for BxPC-3 model where the mice were treated three times a week) at the dose indicated. Tumor volumes were measured twice a week and are presented as mean±SEM. *1 indicates the loss of one mouse due to severe illness. 1B3 binds to mouse, but not human, PDGFRβ. Accordingly, the observed responses to treatment result from inhibition of stimulation of host cells.
Antitumor activity of anti-mPDGFRβ antibody in tumor xenograft models. Six human xenograft tumor models, including three ovarian carcinoma (SK-OV-3, OV-CAR-5 and OV-CAR-8), one pancreatic carcinoma (BxPC3), one lung carcinoma (NCI-H460), and one kidney carcinoma (Caki-1), were used to assess the antitumor activity of 1B3 in vivo. […] Tumor sizes and mouse body weight were measured twice a week. Tumor volume was calculated using the formula: π/6×(length×width^2), where length=longest diameter and width=diameter perpendicular to length. The ratio of average tumor volume in the treatment group versus that in the control group (T/C %) was calculated. […]

[2] = tested on: blood vessels and pericytes in BxPC3 tumor xenografts; assay: Immunohistochemistry of tumor sections (CD31 / α-SMA double staining); format: in vivo, mouse; conditions: BxPC3 tumors, Day 34 post treatment
Excerpt: FIG. 5 represents results of immunohistochemical analysis of human xenografts after treatment with 1B3, DC101, or DC101 plus 1B3. On Day 34 (BxPC3 model, panel A to C) or 50 (NCI-H460 model, panel D to F) post treatment, six mice from each group were sacrificed and tumors were processed for IHC analysis. Tumors were sectioned and double staining for both blood vessels (anti-CD31) and pericyte/SMC coverage (α-SMA, panel B and E). Five digital immunofluorescence images of tumor periphery and tumor core from each section were acquired and quantified for total CD31^+ vessels (panel A and D), α-SMA^+ vessels (panel B and E), and the percentage of dual CD31^+/α-SMA^+ over total CD31^+ vessels (panel C and F). Two different quantitation methods were used to measure the degree of vascularity of individual tumor sections: vessel density (numbers of vessels/[…]) and percentage of vessel area (% vessel area over total tumor area). For statistic analysis, two-way ANOVA followed by Fisher's LSD method was used for multiple comparisons (Sigma Stat 3.1 Systat Software, Inc., Point Richmond, Calif.). *P<0.05 compared to the saline group. Open bars, tumor periphery; solid bars, tumor core. […]
Immunofluorescence images (at 200× magnification) were acquired using EZ-C1 2.20 software through a digital camera connected to a confocal microscope (Nikon Eclipse TE2000U). Computer assisted morphologic quantification was performed using Image Pro Plus software (MediaCybernatics, Silver Spring, Md.) and analyzed from each section.
Five digital images of tumor periphery and tumor core from each section were counted for total CD31^+ vessels, α-SMA^+ vessels, mature vessels (dual CD31^+ and α-SMA^+), and the percentage of dual CD31^+/α-SMA^+ vessels over total CD31^+ vessels. Two different quantitation methods were used to measure the degree of vascularity of individual tumor sections: vessel density (numbers of vessels/[…]) and percentage of vessel area (% vessel area over total tumor area). Computer assisted morphologic quantification was performed using Image Pro Plus software. […]

B1: 1B3: human anti-mouse PDGFRβ antibody from Fab phage display library, human κ/γ1 constant regions; SEQ ID NOS in Table 1 (antibody, listed as Homo sapiens, V domains shown)
VH: QVQLQESGGGLVKPGGSLRLSCAASGFTFSSYSMNWVRQAPGKGLEWVSSISSSSSYIYYADSVKGRFTISRDNSKNTLYLQMNSLRAEDTAVYYCAKGGRPLLVFDFWGQGTLVTVS
VL: EIVMTQSPGTLSLSPGERATLSCRASQSVSSSYLAWYQQKPGQAPRLLIYDASKRATGIPARFSGSGSGTDFTLTISTLESEDSAVYYCQQRGYWPPITFGQGTRLEIKR
modifications: human kappa/gamma1 constant regions
[1]; Caki-1, 40 mg/kg three times per week or 60 mg/kg twice weekly
  antitumor activity: failed to show any antitumor activity
[1]; Caki-1 xenograft, monotherapy
  Tumor Volume T/C %: 65%
[2]; 40 mg/kg three times a week
  CD31^+ vessel density: no significant effect on overall tumor vessel density
  α-SMA^+ vessel density / α-SMA staining: reduced the α-SMA staining in tumor periphery
[2]; versus saline
  percentage of CD31/α-SMA double positive (mature) vessels over total CD31^+ vessels: reduced percentage

Reference: patent publication US7740850B2, “PDGFRβ-specific antibodies” (ImClone, LLC, priority 2007, dated 2010)
